Assay [1] addresses HLA-DRB1*0101 (human). The experiment in a line: competition with 125I-labelled probe peptide on purified HLA-DR. Conditions: remark: other sources report otherwise.
In the next assay the target is HLA-A0101 (human). The experiment in a line: competition with 125I-labelled probe peptide, purified HLA.
Another assay addresses HLA-A*0101 (human). Nature of the assay: competition with 125I-labelled probe peptide on purified HLA-A*0101.
The target of assay [2] is HLA-B0801 (human). Nature of the assay: competition vs 125I probe peptide, purified HLA. The following applies: remark: other sources report otherwise.
For assay [3], the target named is HLA-DRB1*0101 (human). The experiment in a line: competition vs 125I-labelled probe peptide, purified HLA-DR.
The target in the next assay is HLA-DRB1*0301 (human). The assay is described as above.
Assay [4] deals with HLA-A0301 (human).
Another assay has as its target HLA-A*0301 (human). Nature of the assay: competition with 125I-labelled probe peptide on purified soluble HLA.
Another assay concerns the target HLA-B*0702 (human). The experiment in a line: competition with 125I-labeled probe peptide, purified HLA.
In assay [5] the target is HLA-B0702 (human). The experiment in a line: competition vs 125I-labelled probe peptide, purified soluble HLA.
In assay [6] the target is HLA-B0702 (human). The following applies: remark: other sources report otherwise.
Assay [7] has as its target HLA-B0801 (human). Nature of the assay: competition with 125I-labelled probe peptide, purified HLA.
The target in assay [8] is HLA-B0702 (human). The experiment in a line: competition with 125I-labelled probe peptide on purified soluble HLA. Conditions: remark: other sources report otherwise.
Assay [9] has as its target HLA-B0702 (human). Nature of the assay: competition vs 125I probe peptide, purified HLA. The following applies: remark: other sources report otherwise.
Assay [10] addresses HLA-A0301 (human). Nature of the assay: competition vs 125I-labelled probe peptide, purified soluble HLA.
The mark [11] stands for this setting: remark: other sources report otherwise.

Read-outs that look alike come from different tables or passages of the source.

The molecule SYTWTGALITPCAAE (modifications not checked) displayed an IC50 in the assay with HLA-DRB1*0101 (human) [1] of 5.63 nM. The molecule FTDNSSPPA (modifications not checked) had an inhibition constant Ki with HLA-A0101 (human) of 10 nM. This molecule also registered an IC50 with HLA-A*0101 (human) of 10 nM.

With EARQAIRSL (modifications not checked), the Ki with HLA-B0801 (human) [2] amounted to 9 nM. In the case of GHRMAWDMMMNWSPT (modifications not checked) [… (SEQ ID NO 2142)], the IC50 came out at 183 nM with HLA-DRB1*0101 (human) [3] and 919 nM with HLA-DRB1*0301 (human).

RVFTEAMTR (modifications not checked): in the assay with HLA-A0301 (human) [4], the Ki is less than 1000 nM. Also, in the assay with HLA-A*0301 (human), the IC50 is 45 nM. In the assay with HLA-DRB1*0301 (human), GPRLGVRATRKTSER (modifications not checked) [… (SEQ ID NO 2149)] returned an IC50 of 18900 nM. This counts as double-digit micromolar. RVCEKMALY (modifications not checked) registered an inhibitory constant (Ki) with HLA-A0301 (human) [4] of less than 1000 nM. In the assay with HLA-A*0301 (human), this molecule showed an IC50 of 53 nM. Take PTHYVPESDAAARVT (modifications not checked) [… (SEQ ID NO 2193)]: in the assay with HLA-DRB1*0301 (human), the IC50 turned out to be 4950 nM. In other words, the single-digit micromolar range.

In the assay with HLA-Cw0602 (human), ARALAHGVRV (modifications not checked) registered an inhibition constant (Ki) of 9880 nM. For LHGPTPLLY (modifications not checked), the inhibitory constant (Ki) with HLA-A0101 (human) amounted to 20000 nM.

With AAKLSALGL (modifications not checked), the IC50 with HLA-B*0702 (human) came out at 277 nM. In the assay with HLA-B0702 (human) [5], the inhibition constant Ki was determined as 277 nM. As for QPRGRRQPI (modifications not checked), the inhibition constant Ki with HLA-B0702 (human) [6] is less than 1000 nM; with HLA-B0801 (human) [7] (setting [11]) it was 3 nM; in the assay with HLA-B0702 (human) [8] it was 1 nM; in the assay with HLA-B0702 (human) [9], 1 nM. In the case of YLFNWAVRTK (modifications not checked), the inhibition constant (Ki) with HLA-A0301 (human) [10] is less than 1000 nM. For the molecule YLKGSSGGPL (modifications not checked), the inhibition constant (Ki) with HLA-B0801 (human) [7] was 10 nM.

In the assay with HLA-B*0702 (human) (setting [11]), APLGGAARAL (modifications not checked) displayed an IC50 of 0.8 nM. The Ki with HLA-B0702 (human) [8] and with HLA-B0702 (human) [9] was 1 nM throughout.
